For one molecule, Kd results are on record in paper PMC7610802 (The Journal of allergy and clinical immunology, 2019).

This experiment has as its target T1, mouse soluble ST2 (sST2) (mouse, UniProt P14719-2 27-337, N-linked glycans (shown by PNGase F)).
T1 sequence: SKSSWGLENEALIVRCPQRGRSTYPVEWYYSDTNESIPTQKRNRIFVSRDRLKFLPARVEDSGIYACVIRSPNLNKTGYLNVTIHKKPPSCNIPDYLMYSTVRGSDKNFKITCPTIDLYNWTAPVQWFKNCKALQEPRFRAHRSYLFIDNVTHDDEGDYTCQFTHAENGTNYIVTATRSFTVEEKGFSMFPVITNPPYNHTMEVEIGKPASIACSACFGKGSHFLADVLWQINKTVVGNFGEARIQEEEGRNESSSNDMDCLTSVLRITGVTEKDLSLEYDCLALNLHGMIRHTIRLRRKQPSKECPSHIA
The experiment is described as follows: ITC.

B1: mouse IL-33 (residues 109-266) (ligand)
chain: SIQGTSLLTQSPASLSTYNDQSVSFVLENGCYVINVDDSGKDQEQDQVLLRYYESPCPASQSGDGVDGKKLMVNMSPIKDTDIWLHANDKDYSVELQRGDVSPPEQAFFVLHKKSSDFVSFECKNLPGTYIGVKDNQLALVEEKDESCNNIMFKLSKI
With B1, the Kd (commonly the equilibrium constant for the complex coming apart) amounted to 4.59 nM.
